Test results: the nanobody polyreactivity screen of Harvey et al. (2022)

Assay: yeast display, Sf9 membrane polyspecificity reagent, FACS + sequencing; frameworks hold sequencing errors
Summary of the method: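 Sorting gates, low and high (top ~1%), were placed on anti-HA fluorescence to track expression and on streptavidin fluorescence to track reagent binding. A clone's polyreactivity label is taken from the gate it came out of. The reagent was 10% biotinylated, detergent-solubilized Sf9 membrane, applied for 1 hour at 4 °C to galactose-induced yeast display cells.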

Sequence: QVQLVESGGGLVQARGSLRLSCAASGGTFESYAMGWYRQAPGKERELVAAITYSGGSTYYADSVKGRFTISRDNAKNTVYLQMNSLKPEDTAVYYCAARPRFITYKRYYWGQGTQVTVSS
- polyreactivity (PSR sort gate): high polyreactivity

Sequence: QVQLVESGGGLVQAGGSLRLSCAASGFIFWIYAMGWYRQAPGKEREFVAVITYRGDTSYYADSVKGRFTISRDNAKNTVYLQMNSLKPEDTAVYYCAAYTVQKYGYWGQGTQVTVSS
- polyreactivity (PSR sort gate): low polyreactivity

Sequence: QVQLVESGGGLVQAGGSLRLSCAASGRIFKYNAMGWSIQAPGKERELVAAISSGGSTKYADSVKGRFTISRDNAKNTVYLQMNSLKPEDTAVYYCNAVYTPYRRSFYYWGHGTQVTVSS
- polyreactivity (PSR sort gate): high polyreactivity

Sequence: QVQLVESGAGLVQAGGRLRLSCAASGFIFTRYVMGWYRQAPGKERELVAAIRRGGSTYYADSVKGRFTISRDNAKNTVYLPMNSLKPEDTAVYYCAALYAYSLTARGMEYWGQGTQVTVSS
- polyreactivity (PSR sort gate): high polyreactivity

Sequence: QVQLVESGGGLVQAGGSLRLSCGASGAIFSRYAMGWSRPAPGKERQLVAAITSSGGSTYYADSVKGRFTISRDNAKNTVYLQMNSLKPEDTAVYYCATQYAGPWGEYDYWGQGTQVTVSS
- polyreactivity (PSR sort gate): low polyreactivity

Sequence: QVQLVESAGGLVQAGGSLRLSCAASGSTFDYYAMGWYRQAPGKERELVASITWGDGSTYYADSVKGRFTISRDNAKNTVYLQMNSLKPEDTAVYYCNADDTQLESYAPGHGYDYWGQGTQVTVSS
- polyreactivity (PSR sort gate): low polyreactivity

Sequence: QVQLVESGGGLVQAGGSLRLSCASSGSTFPSNAMGWYRQAPGKERELVAAISRSGGSTYYADSVKGRFTISRDTAKNTVYLQMNSLKPEDTAVYYCAVQVRPNSGGTRIHRCGYDYWGQGTQVTVSS
- polyreactivity (PSR sort gate): low polyreactivity

Sequence: QVQIVESGGGLVQAGGSLRLSCAASGSIFYRYAMGWYRQAPGKERQLVAAISSGGTTSYADSVKGRFTISRDNAKNTVYLQMNSLKPEDTAVYYCAAFAYGYRYKTYDYWGQGTQVTVSS
- polyreactivity (PSR sort gate): high polyreactivity

Sequence: QVQLVESGGGLVQEVGSLRLSCAATGRTFYQNVMGWSRQARGKERELVAAISQRGGRTYYADSVKGRFTISRDNAKITVYLQMNSLKPEDTEVYYCNADSTVWPYDYWGQGTQVTVSS
- polyreactivity (PSR sort gate): low polyreactivity

Sequence: QVQLVESGGGLDQEGGSLRLSCAASGSTFAVHVMGWYRHAPGKERELVATITYRDGRTYYADSVKGRFTISRDNANNTVYLQMNSLKPEDTAVYYCAADWYTTYDYWGQGTQVTVSS
- polyreactivity (PSR sort gate): low polyreactivity

Sequence: QVQLVESGGGLVQAGGSLRLSCAASGRIFYYNAMGWYRQAPGKERELVAAITRSGSTNYADSVKGRFTISRDNSKNSVYLQMNSLKPEDTAVYYCAAPWRGSVFRYYSWGQGTQVTVSS
- polyreactivity (PSR sort gate): low polyreactivity

Sequence: QVQLVESGGGLVQAGGSLRLSCAASGYTIYYYAMGWYRQAPGKERELVAVITSRGPRTYYADSVKGRFTISRDNAKNTVYLQMNSLKPEDTAVYYCNKARGVAYDWGQGTQVTVSS
- polyreactivity (PSR sort gate): high polyreactivity

Sequence: QEQLQESGGGLVQAGGSLRLSCAASGSISQAWYMGWYRQAPGKERELVAAINVGAITYYADSVKGRFSISRDNAKNTVYLPMNSLTPEDTAVYYCAVDQYSEAYYDYWGQGTQATVSS
- polyreactivity (PSR sort gate): high polyreactivity

Sequence: QVQLVESGGGLVQAGGSLRLSCAASGRTFSINAMGWYRQAPGKERELVASISSRGTRTNYADSVKGRFTISRDNAKNTVYLQMNSLKPEDTAVYYCAADRYYPYYSAWREYEYWGQGTQVTVSS
- polyreactivity (PSR sort gate): high polyreactivity

Sequence: QVQLVESGGGLVQAGGSLRLSCAASGFIFVYNDMGWYRQAPGKERELVAAISTSGGSTYYADSVKGRFTISRDNAKNTVYLQMNSLKPEDTAVYYCAAGPSYYPFFWPDFEYWGQGTQVTVSS
- polyreactivity (PSR sort gate): high polyreactivity

Sequence: QVQLVESGGGLVQAGGSLRLSCAASGFIFLFYAMGWYRQAPGKERELVAAISSGVSTNYADSVKGRFTISRDNAKNTVYLQMNSLKPEDTAVYYCNTTQSTSLLYDYWGQGTQVTVSS
- polyreactivity (PSR sort gate): low polyreactivity

Sequence: QVQLVESGGGLVQAGGSLRLSCAASGRIFGYYAMGWYRQAPGTERELVAAITYNGASTYYADSVKGRFTISRDNAKNTVYLQMNSLKPEDTAVYYCAVLTRYGGYGYWGQGTQVTVSS
- polyreactivity (PSR sort gate): high polyreactivity

Sequence: QVQRVEEGRGLVQAGGTLRISCAASGSIFNQYAMGWYRHAPGQERELVAAITASGGSTYYAVSVKGRFTISRDNAKKTVYLQMNCLKPEDPAVYYCAKVELRDSAELGSDEYDYWGQGTQVTVSS
- polyreactivity (PSR sort gate): low polyreactivity

Sequence: QVQLVESRGGLVQAGGSLRLSCAASGRNFRFNAMGWYRQEPGKERELVAAISASGGITYYADSVKGRFTISRDNAKNTVYLQMNSLKPEDSAVYYCAADLYATWSYFFTWLDNWGQGTQVTVSS
- polyreactivity (PSR sort gate): high polyreactivity

Sequence: QVQLVESGGGLVQAGGSLRLSCAASGSTFSGYMGWNRQAPGKERELVAAITSGGSTNYADSVKGRFTISRDNAENTVYLQMNSLKPEDTAVYYCAAQGRWLGWRGYDYWGLGTQVTVSS
- polyreactivity (PSR sort gate): high polyreactivity

Sequence: QVQLVESVGGLVQAGGSLRLSCAASGFIFASYAMGWYRQAPGKERELVAAISWRGGSTYYADSVKGRFTISRDNAKNTVYLQMNSLKPEDTAVYYCKAYVYVGTGRGYDTLDYWGQGTQVTLSS
- polyreactivity (PSR sort gate): low polyreactivity

Sequence: QVQLVESGGGLVQAGGSLRLSCAASGLTFAGNAMGWSRQAPGTERELVAAITWTGDRTYYADSVKGRFTISRDNAKNTVYLQMNCLKPEDTAVYYCAAQVRSLYSPGWYYYWGQGTQVTVSS
- polyreactivity (PSR sort gate): high polyreactivity

Sequence: QVQLQESGGGLVQAGGILRLSCASCGNIIPSAVMVWYRQALGKEREFVATINSGSNTYYADSVKGRFTISRDNAKITVYQQMNILKLEDTAVYYCAAYFKLPAWHTYWGQGTQVTVSS
- polyreactivity (PSR sort gate): low polyreactivity

Sequence: QVQLVESGGGLVQAGGSLRLSCAASGFTFRYYAMGWSRQDPGKERELVAAITNVGSTNYADSVKGRFTISRDNAKYTVYLLMNSLKPEDTAVYYCNAPRTPWRRSYDYWGQGTQVTVSW
- polyreactivity (PSR sort gate): high polyreactivity

Sequence: QVQLVESGGGLVQAGGSLRLSCAASGSTFDAYAMGWYRQAPGKDRELVAGISSGGSYEYADSVKGRFTISRDNAKNTVYLQMNSLIPEDTAVYYCAADSRQSVYYYQPTKFDYWGQGSQVTVSS
- polyreactivity (PSR sort gate): low polyreactivity

Sequence: QVQLVESGGGLVQAGGSLRLSCAASGFIFEAYTMGWSRQAPGKERELVASIDWDGGSTYYADSVKGRFTISRDNAKNTVYLQMNSLKPEDTAVYYCAADSRQYDELGDYDYWGQGTQVTVSS
- polyreactivity (PSR sort gate): low polyreactivity

Sequence: QVQLVESGGGLVQAGGSLRLSCAASGRTFWYYTMGWYRQAPGKEREFVAAIRGSGTSTYYADSGKARFTISRDNAKNNVYLQMNSLKPEDTAVYYCAAESPVYHLVTYDYWGQGTQVTVSW
- polyreactivity (PSR sort gate): high polyreactivity

Sequence: QVQLVESGGGLVQAGGSLRLSCAASGRTFYYAMGWYRQAPGKERELVAAITSSSSTYYADSVKGRFTISRDNAKNTVYLQLNSVKPEDTAVYYCNAADDPYGSPSYGYDYWGQGTQVTVSS
- polyreactivity (PSR sort gate): low polyreactivity

Sequence: QVQLVESGGGLVQAGGSLRLSCAASGRTFGQYTMGWYRQAPGKERELVAGITRSGSRTYYADSVKGRFTISRDNAKNTVYLQMNSLKPEDTAVYYCAARVYKSQGGLPEYDYWGQGTQVTVSS
- polyreactivity (PSR sort gate): high polyreactivity

Sequence: QVQLQESGGGLVQAGGSLRMSCAASGNIFDADIMGWYRQAPGKERELVASITDGRRTNYADSVKGRYTISRDSEKNTVYLQMNSLKPEDTAVYYCAAIAYPVVPTYFDYDSDYFHWGQGTQVTVSS
- polyreactivity (PSR sort gate): high polyreactivity

Sequence: QVQLVESGGGLVQAGGSLRLSCAASGRIFAAYAMGWYRQAPGKERELVAAISWSGANTYYADSVKGRFTISRDNAKNTVYLQMNSLKPEDTAVYYCATLSKSYGVRRYKSDYWGQGTQVTVSS
- polyreactivity (PSR sort gate): high polyreactivity

Sequence: QVLLVESGGGFVQAGGSLRLSCSASGSIFSPYTMGWYRQATGKERELVAAISRGGNTYYADSVKGRFTISRDNAKNTVYLQMNSLKPEDTAVYYCAARAKYDRRTDGTSGYDYWGQGTQVTVSS
- polyreactivity (PSR sort gate): low polyreactivity

Sequence: QVQLVESGGGLVQAGGSLRLSCAASGRTFLVNAMGWYRQAPGKEREFVAAITSRSGRTNYADSVKGRFTISRDNAKNTVYLEMNSLKPEDTAVYYCNAEGYTVKYWYSRYDYWGQGTQVTVSS
- polyreactivity (PSR sort gate): high polyreactivity

Sequence: QVQLVESGGGLVQAGGSLRLSCAASGSTFAQYAMGWYRQAPGKEREFVAAITRGGGRTYYADSVKGRFTISRDNAKNSVYLQMNSLKPEDTAVYYCNAVYRYYPFDYWGQGTQVTVSS
- polyreactivity (PSR sort gate): high polyreactivity

Sequence: QVHLVESGGGLVQAGGSLRLSCAASGSIFYYYAMGWYRQAPGKEREFVAAINWSGGITYYADSVKGRFTISRDNAKNTVYLQMNSLKPEDTAVFYCAAPVRGYSYGKYDYWGQGTQVTVSS
- polyreactivity (PSR sort gate): high polyreactivity

Sequence: QVQLVESGGGLVQAGGSLRLSCAASGRIFSWYAMGWYRQAPGKERELVAAISWNGGSTYYADSVKGRFTISRDNAKNTVYLQMNSLKPEDTAVYYCAATYRHYGYDSWGQGTQVTVSS
- polyreactivity (PSR sort gate): high polyreactivity

Sequence: QVQLVESGGGLVQAGGSLRLSCAASGRIFVRYAMGWYRPAPGKERELVATISSRGGSTYYADSVKGRFTISRDNAKNTVYLQMTSLKPEDTAVYYWAAYVYPWGRDYWGQGTQVTVSS
- polyreactivity (PSR sort gate): high polyreactivity

Sequence: QVQHVESGVGLVQAGGRLRLSCAASGRTFSSNAMGWYRKAPGKERELVAAISSSGGRTYYADSVKGRFTISRDNAKNTVYLDMNSLKQEDTAVYYCAVVYFPIWASYPYWWEYDYWGHGTQVTVSS
- polyreactivity (PSR sort gate): high polyreactivity

Sequence: QVQLVESGGGLVQAGGSLRLSCAASGRIFRRNAMGWYRQAPGKEREFVAAISYRGGSTYYADSVKGRFTISRDNAKNTVYLQMNSLKPEDTAVYYCAATGYGSAYNPYDHWGQGTQVTVSS
- polyreactivity (PSR sort gate): high polyreactivity

Sequence: QVQLVESGGGLVQAGCSLRLSCAASGSIFDTNAKGWYRQAPGKERELVAAIYDNTGRTYYADSVKGRFTISRDNSKNTVYLQMNSQKPEDTAVYYCNAPRYYWISFARWPASYYYWGQGTQVTVSS
- polyreactivity (PSR sort gate): high polyreactivity

Sequence: QVQLVESGGGLVQAGGSLRLSCAASGRIFGSYAMGWYRQAPGKERELVATISRRGGSTYYADSVKGRFTISRDNAKNTVYLQMNRLKPEDTAVYYCNADYKITKTWSGTIRYYYWGQGTQVTVSS
- polyreactivity (PSR sort gate): high polyreactivity

Sequence: QVQLVESGGGLVQAGGSLRLSCAASGRIFYFYAMGLYTQAPGKERELVAVISYGGDRTSYADSVKGRFTISRDNAKNTVYLQMNSLKPEDSAVYYCAARPFYRGYYYWGQGTQVTVSS
- polyreactivity (PSR sort gate): high polyreactivity

Sequence: QVQLVESGGGLVQAGGSLRLSCAASGSIFWYYAMGWYRQAPGKERELVASISSSGGSTYYADSVKGRFTISRDNAKNTVYLQMNSLKPEDTAVYYCAVRSPYRLSRWRVGYWGQGTQVTVSS
- polyreactivity (PSR sort gate): high polyreactivity
